From PMC11863153, “Mechanistic Insights Into Oxidative Response of Heat Shock Factor 1 Condensates” (JACS Au, 2025) come the findings set out here.

B1: Heat shock factor 1 (Hsf1) wild-type [human] / itself (parent)
chain: MDLPVGPGAAGPSNVPAFLTKLWTLVSDPDTDALICWSPSGNSFHVFDQGQFAKEVLPKYFKHNNMASFVRQLNMYGFRKVVHIEQGGLVKPERDDTEFQHPCFLRGQEQLLENIKRKVTSVSTLKSEDIKIRQDSVTKLLTDVQLMKGKQECMDSKLLAMKHENEALWREVASLRQKHAQQQKVVNKLIQFLISLVQSNRILGVKRKIPLMLNDSGSAHSMPKYSRQFSLEHVHGSGPYSAPSPAYSSSSLYAPDAVASSGPIISDITELAPASPMASPGGSIDERPLSSSPLVRVKEEPPSPPQSPRVEEASPGRPSSVDTLLSPTALIDSILRESEPAPASVTALTDARGHTDTEGRPPSPPPTSTPEKCLSVACLDKNELSDHLDAMDSNLDNLQTMLSSHGFSVDTSALLDLFSPSVTVPDMSLPDLDSSLASIQELLSPQEPPRPPEAENSSPDSGKQLVHYTAQPLFLLDPGSVDTGSNDLPVLFELGEGSYFSEGDGFAEDPTISLLTGSEPPKAKDPTVS

In the test the parent is B1. Kind of test: nonreducing SDS-PAGE, quantification of higher-order oligomer bands. To be noted: with itself; purified Hsf1 mutants; means ± s.d. of three independent experiments; parent: 1; read off a plot.
With chain 1 C373S C378S, the ratio to parent worked out at 1.4 AU.
As for chain 1 C153S, the ratio to parent amounted to 0.46 AU.
Turning to chain 1 C36S C103S, the ratio to parent is 1.1 AU.
